Measurements from paper PMC3887256.

Biological target: TAP-tagged human presenilin 1 (human) (UniProt P49768)
Experiment: SEC-MALS; TAP-purified PS1 complex on Superdex S-200 10/300 in Tris buffer with 0.1% digitonin; protein and detergent masses by conjugate analysis; complex co-purified from cells

stoichiometry N: 1
Substance: anterior pharynx 1 (aph1) (from UniProt Q96BI3 1-265) (natural protein)
